From patent US20120270800A1
pKd: −log10 of the molar value.

Target: KIX
Experiment: fluorescence polarization

pKd: 7.05
Substance: MLL WT
